The record followed here is article PMC4142212 (Nature, 2014).

The target in experiment [1] is T1, ZMYND11 PBP (PHD-Bromo-PWWP, aa74-371) (Mus musculus, UniProt Q8R5C8).
T1 sequence (Q8R5C8 74-371): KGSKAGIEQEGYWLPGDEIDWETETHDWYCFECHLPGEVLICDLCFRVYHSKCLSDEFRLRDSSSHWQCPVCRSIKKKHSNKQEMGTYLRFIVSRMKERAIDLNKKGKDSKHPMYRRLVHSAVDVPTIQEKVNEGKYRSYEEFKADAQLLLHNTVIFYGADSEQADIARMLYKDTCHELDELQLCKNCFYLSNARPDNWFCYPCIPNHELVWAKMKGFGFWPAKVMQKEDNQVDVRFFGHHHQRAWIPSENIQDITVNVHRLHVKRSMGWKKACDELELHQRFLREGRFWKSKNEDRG
In words: ITC, ZMYND11 PBP domains. It is filed as binding. The note with it: n value fixed at 1.

Experiment [2] concerns the target T2, ZMYND11 BP (Bromo-PWWP, 154-371) (Mus musculus, UniProt Q8R5C8).
T2 sequence (Q8R5C8 154-371): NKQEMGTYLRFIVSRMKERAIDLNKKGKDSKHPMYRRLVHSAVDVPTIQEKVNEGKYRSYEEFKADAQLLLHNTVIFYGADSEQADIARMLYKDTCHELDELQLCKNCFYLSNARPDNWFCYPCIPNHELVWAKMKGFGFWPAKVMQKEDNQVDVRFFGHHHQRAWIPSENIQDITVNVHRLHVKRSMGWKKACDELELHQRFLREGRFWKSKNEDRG
In words: ITC, ZMYND11 BP domains. It is filed as binding. The note with it: n value fixed at 1.

The subject of a further experiment is ZMYND11 PBP. In words: Histone peptide pull-down, GST-ZMYND11 PBP. The following applies: mild buffer: 50 mM Tris-HCl 7.5, 200 mM NaCl, 0.05% NP-40, 1 mM PMSF. The format is binding, mouse.

“H3.1K36me3: synthetic histone H3.1_19-42K36me3 peptide”: the results for the Titration c-value in experiment [1] and in experiment [2] were 0.16 and 0.15, respectively. Also, the “peptide pull-down binding, mild buffer” value in the experiment on ZMYND11 PBP is listed as “weak binding”.
